Values belong to the molecule of their own block, whether it stands above or below them.
Experiments:
O=C1C=CC(=O)C=C1 = assay: purified protein; details: apparent, electron acceptor, 100 mM D-glucose, oxygen removed with nitrogen, pH 6.5, 30°C, 50 mM potassium phosphate
[1] = tested on: O=C1C(Cl)=CC(=Nc2ccc(O)cc2)C=C1Cl; assay: purified protein; details: apparent, electron acceptor, 100 mM D-glucose, oxygen removed with nitrogen, pH 6.5, 30°C, 50 mM potassium phosphate
TmP2Ox = target: T1, TmP2Ox (Trametes ochracea, UniProt Q7ZA32); assay: absorbance at […] nm; format: biochemical; details: apparent; electron acceptor, 100 mM D-glucose, oxygen removed with nitrogen, pH 6.5, 30°C, 50 mM potassium phosphate; used as PF6 salt
T1 construct: gene p2o; C-terminal His6 tag kept, pET21-d(+), E. coli BL21(DE3), IMAC

PcP2Ox = target: T2, PcP2Ox (Phanerodontia chrysosporium, UniProt Q6QWR1); assay: absorbance at […] nm; format: biochemical; details: apparent; electron acceptor, 100 mM D-glucose, oxygen removed with nitrogen, pH 6.5, 30°C, 50 mM potassium phosphate; used as PF6 salt
T2 construct: gene p2ox; C-terminal His6 tag kept, pET21-a(+), E. coli BL21(DE3), IMAC

LsP2Ox = target: T3, LsP2Ox (Lyophyllum shimeji, UniProt Q75ZP8); assay: absorbance at […] nm; format: biochemical; details: apparent; electron acceptor, 100 mM D-glucose, oxygen removed with nitrogen, pH 6.5, 30°C, 50 mM potassium phosphate; used as PF6 salt
T3 construct: gene p2ox; full-length cDNA (ORF 1857 bp, 619 residues), C-terminal His6 tag kept, pET21a(+), E. coli Rosetta 2; purified by AIEX and preparative native PAGE; subunit 68,488 Da

purified protein [2] = substrate: O=C1C=CC(=O)C=C1; assay: purified protein; format: biochemical, Lyophyllum shimeji; details: apparent, electron acceptor, 100 mM D-glucose, oxygen removed with nitrogen, pH 6.5, 30°C, 50 mM potassium phosphate
purified protein [3] = substrate: O=C1C(Cl)=CC(=Nc2ccc(O)cc2)C=C1Cl; assay: purified protein; format: biochemical, Lyophyllum shimeji; details: apparent, electron acceptor, 100 mM D-glucose, oxygen removed with nitrogen, pH 6.5, 30°C, 50 mM potassium phosphate

T2 sequence (Q6QWR1 whole entry): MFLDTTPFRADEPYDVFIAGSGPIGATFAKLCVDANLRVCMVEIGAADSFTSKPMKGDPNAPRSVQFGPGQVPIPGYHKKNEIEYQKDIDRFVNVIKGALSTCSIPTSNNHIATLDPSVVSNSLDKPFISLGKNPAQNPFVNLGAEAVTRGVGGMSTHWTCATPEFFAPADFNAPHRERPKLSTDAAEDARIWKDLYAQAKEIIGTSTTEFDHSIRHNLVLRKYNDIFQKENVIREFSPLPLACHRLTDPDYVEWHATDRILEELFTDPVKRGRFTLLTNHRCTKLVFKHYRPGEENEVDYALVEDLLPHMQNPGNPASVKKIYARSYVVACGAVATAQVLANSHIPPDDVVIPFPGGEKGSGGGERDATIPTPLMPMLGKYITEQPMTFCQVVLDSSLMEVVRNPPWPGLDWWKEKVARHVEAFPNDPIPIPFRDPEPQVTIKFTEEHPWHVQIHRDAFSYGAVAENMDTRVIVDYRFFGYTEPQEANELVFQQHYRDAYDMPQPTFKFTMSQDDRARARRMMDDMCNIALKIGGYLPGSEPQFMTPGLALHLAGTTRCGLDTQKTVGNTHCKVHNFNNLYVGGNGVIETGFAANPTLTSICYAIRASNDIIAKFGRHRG

Molecule: TmP2Ox (Trametes ochracea)
Km (O=C1C=CC(=O)C=C1): 0.253 mM
kcat (O=C1C=CC(=O)C=C1): 225 s⁻¹
kcat/Km (O=C1C=CC(=O)C=C1): 895000 M⁻¹ s⁻¹
Km [1]: 0.413 mM
kcat [1]: 42 s⁻¹
kcat/Km [1]: 102000 M⁻¹ s⁻¹

Km (TmP2Ox): 507 µM
Km (PcP2Ox): 330 µM
Km (LsP2Ox): 187 µM
Molecule: C1=CCC=C1.C1=CCC=C1.[Fe+3] [ferrocenium ion]

B1: LsP2Ox (Lyophyllum shimeji) (protein)
chain: MSLSTEQMLRDYPRSMQINGQIPKNAIHETYGNDGVDVFIAGSGPIGATYAKLCVEAGLRVVMVEIGAADSFYAVNAEEGTAVPYVPGYHKKNEIEFQKDIDRFVNVIKGALQQVSVPVRNQNVPTLDPGAWSAPPGSSAISNGKNPHQREFENLSAEAVTRGVGGMSTHWTCSTPRIHPPMESLPGIGRPKLSNDPAEDDKEWNELYSEAERLIGTSTKEFDESIRHTLVLRSLQDAYKDRQRIFRPLPLACHRLKNAPEYVEWHSAENLFHSIYNDDKQKKLFTLLTNHRCTRLALTGGYEKKIGAAEVRNLLATRNPSSQLDSYIMAKVYVLASGAIGNPQILYNSGFSGLQVTPRNDSLIPNLGRYITEQPMAFCQIVLRQEFVDSVRDDPYGLPWWKEAVAQHIAKNPTDALPIPFRDPEPQVTTPFTEEHPWHTQIHRDAFSYGAVGPEVDSRVIVDLRWFGATDPEANNLLVFQNDVQDGYSMPQPTFRYRPSTASNVRARKMMADMCEVASNLGGYLPTSPPQFMDPGLALHLAGTTRIGFDKATTVADNNSLVWDFANLYVAGNGTIRTGFGENPTLTSMCHAIKSARSIINTLKGGTDGKNTGEHRNL
notes: full-length cDNA (ORF 1857 bp, 619 residues), C-terminal His6 tag kept, pET21a(+), E. coli Rosetta 2; purified by AIEX and preparative native PAGE; subunit 68,488 Da
Km (purified protein [2]): 0.033 mM
kcat (purified protein [2]): 92.3 s⁻¹
kcat/Km (purified protein [2]): 2.76e+06 M⁻¹ s⁻¹
Km (purified protein [3]): 0.187 mM
kcat (purified protein [3]): 67.3 s⁻¹
kcat/Km (purified protein [3]): 361000 M⁻¹ s⁻¹

From paper PMC2914677, “Characterisation of recombinant pyranose oxidase from the cultivated mycorrhizal basidiomycete Lyophyllum shimeji (hon-shimeji)” (Microbial Cell Factories, 2010)
